# Measurements reported in patent publication US6096529A, “Recombinant α-2,3-sialyltransferases and their uses” (priority 1997, dated 2000).
# Columns and labels:
# Experiment in all cases: Determination of kinetic constants with APTS-labelled acceptors
# Assay type in all cases: biochemical, Neisseria meningitidis
# [1] = tested on: O=S(=O)(O)c1cc(NC[C@H](O)[C@@H](O)[C@H](O[C@@H]2O[C@H](CO)[C@H](O)[C@H](O)[C@H]2O)[C@H](O)CO)c2ccc3c(S(=O)(=O)O)cc(S(=O)(=O)O)c4ccc1c2c34; conditions: other: apparent; APTS-labelled acceptor, CMP-Neu5Ac 200 μM, room temperature
# Description: (§1) Measurement of Sialyltransferase Activity and Survey of Oligosaccharide Acceptors--FCHASE-labelled oligosaccharides were prepared as described above, while the APTS-labelled oligosaccharides were prepared by reductive amination of reducing saccharides according to the method described by Guttman et at. (Anal. Biochem233:234 (1996)) The Gal-β-APTS acceptor was derived from labelling of lactose; the Gal-α-APTS acceptor was derived from labelling of melibiose; the N-acetyllactosamine (LacNAc) acceptor was synthesized by APTS labelling of chitobiose, followed by enzymatic modification with bovine β-Galactosyl transferase to produce the LacNAc moiety-, the Gal-α-1.4-Gal-β acceptor was enzymatically synthesized from β-Gal-APTS with the α-1,4-galactosyltransferase from N. meningitidis. All of the reductive amination products were purified by gel permeation chromatography on Toyopearl HW4OF (Sigma-Aldrich), 1.5 cm×15 cm column, using water as the eluant. It should be mentioned that all of these molecules have the terminal reducing sugar ring opened in the process of labelling. APTS-saccharides were quantitated by measuring the A455, and using an extinction coefficient of 17160 M^-1 cm^-1 . The TMR-labelled oligosaccharides were prepared as described by Zhao et al. (1994) Glycobiology 4:239-242. For the TMR labelled acceptors we used an extinction coefficient of 80,000 M^-1 cm^-1 for quantitation. The sialyltransferase activity was routinely measured using 0.5 mM FCHASE-N-acetyllactosamine as the acceptor and the assay conditions as described above. For measurement of Km, and kcat values, assays were performed with the APTS labelled saccharides at room temperature. Assays were monitored so that for all acceptor concentrations, no more than 10% conversion to product occurred. The ranges of acceptor and donor concentrations were determined empirically, then a range spanning 0.2Km, up to 5Km, was used to obtain the values. Data were examined using the Grafit™3.0 software package (Erithacus Software, London, UK).
# (§2) The reaction mixtures from the FCHASE- and APTS-labelled acceptors were analyzed by capillary electrophoresis performed with a Beckman instruments (Fullerton, Calif.) P/ACE 5510 equipped with a 3 mW Argon-ion laser induced fluorescence detector, λ excitation=488 nm λ emission=520 nm. The Capillary was of bare silica 75 μ X 57 cm, with the detector at 50 cm. The capillary was conditioned before each run by washing with 0.2 M NaOH for 2 min., water for 2 min., and either 20 mM sodium phosphate buffer, pH 7.4 or sodium tetraborate, pH 9.3, 2 min. Samples were introduced by pressure injection for 2-5 seconds, and the separation was performed at 18 kV, 75 μA. Peak integration was performed with the Beckman PACE-Station software (version 1).
# [2] = tested on: CC(=O)N[C@H]1[C@H](O[C@H]2[C@@H](O)[C@@H](CO)O[C@@H](O[C@@H]([C@H](O)[C@@H](O)CNc3cc(S(=O)(=O)O)c4ccc5c(S(=O)(=O)O)cc(S(=O)(=O)O)c6ccc3c4c65)[C@H](O)CO)[C@@H]2O)O[C@H](CO)[C@@H](O[C@@H]2O[C@H](CO)[C@H](O)[C@H](O)[C@H]2O)[C@@H]1O; conditions: other: apparent; APTS-labelled acceptor, CMP-Neu5Ac 200 μM, room temperature
# Description: as §1, §2
# [3] = tested on: CC(=O)N[C@H]1[C@H](O[C@@H]([C@H](O)[C@H](CNc2cc(S(=O)(=O)O)c3ccc4c(S(=O)(=O)O)cc(S(=O)(=O)O)c5ccc2c3c54)NC(C)=O)[C@H](O)CO)O[C@H](CO)[C@@H](O[C@@H]2O[C@H](CO)[C@H](O)[C@H](O)[C@H]2O)[C@@H]1O; conditions: other: apparent; APTS-labelled acceptor, CMP-Neu5Ac 200 μM, room temperature
# Description: as §1, §2
# [4] = tested on: CC(=O)N[C@H]1[C@H](O[C@H]2[C@@H](O)[C@@H](CO)O[C@@H](O[C@@H]([C@H](O)[C@@H](O)CNc3cc(S(=O)(=O)O)c4ccc5c(S(=O)(=O)O)cc(S(=O)(=O)O)c6ccc3c4c65)[C@H](O)CO)[C@@H]2O)O[C@H](CO)[C@@H](O)[C@@H]1O[C@@H]1O[C@H](CO)[C@H](O)[C@H](O)[C@H]1O; conditions: other: apparent; APTS-labelled acceptor, CMP-Neu5Ac 200 μM, room temperature
# Description: as §1, §2
# [5] = tested on: O=S(=O)(O)c1cc(NC[C@H](O)[C@@H](O)[C@H](O[C@@H]2O[C@H](CO)[C@H](O[C@H]3O[C@H](CO)[C@H](O)[C@H](O)[C@H]3O)[C@H](O)[C@H]2O)[C@H](O)CO)c2ccc3c(S(=O)(=O)O)cc(S(=O)(=O)O)c4ccc1c2c34; conditions: other: apparent; APTS-labelled acceptor, CMP-Neu5Ac 200 μM, room temperature
# Description: as §1, §2
# [6] = tested on: CC(=O)N[C@H]1[C@H]([C@H](O)[C@H](O)CO)O[C@](OP(=O)(O)OC[C@H]2O[C@@H](n3ccc(N)nc3=O)[C@H](O)[C@@H]2O)(C(=O)O)C[C@@H]1O; conditions: other: acceptor LacNAc-APTS (0.8 mM) or lacto-N-neotetraose-APTS (0.2 mM)
# Description: as §1, §2
substance,measurement,setting,value
"purified recombinant α-2,3-sialyltransferase (Neisseria meningitidis MC58)",Km,[1],168 µM
same,kcat,[1],0.0633 s⁻¹
same,Km,[2],42 µM
same,Km,[3],67 µM
same,kcat,[3],0.118 s⁻¹
same,Km,[4],113 µM
same,kcat,[4],0.0383 s⁻¹
same,Km,[5],139 µM
same,kcat,[5],0.013 s⁻¹
same,Km,[6],20 µM
